Measurements published in IntAct's records for PubMed 16525507.

B1: Type II secretion system protein E (Xanthomonas campestris pv. campestris), P31742 (parent)
chain: MEQRSAETRIVEALLERRRLKDTDLVRARQLQAESGMGLLALLGRLGLVSERDHAETCAEVLGLPLVDARQLGDTPPEMLPEVQGLSLRFLKQFHLCPVGERDGRLDLWIADPYDDYAIDAVRLATGLPLLLQVGLRSEIDDLIERWYGQGRSAMGTIVETADGDASSTDDIEALRDLASEAPVIRLVNLVIQHAVELRASDIHIEPFESRLKVRYRVDGVLVEGESPPAKLTAAVISRIKIMAKLNIAERRLPQDGRIMLRVQGKELDLRVSTVPTAHGESVVMRLLDRETVVFDFYKLGFTEDFLPQFRKVLEQPHGIMLVTGPTGSGKTTTLYTALSQLNTSDVKIITVEDPVEYQIEGINQIQAKPQIGLDFANALRSIVRQDPDIIMIGEMRDLETARIAIQSALTGHLVLSTLHTNNAAGGITRLLDMGVEDYLLTSTINGILAQRLVRKLDLANAERYAASPEEIERFDLRRLQPDGEIFLYRPRATAAAPTGYLGRTTIVEFLVMNDELRRAVMRRAGMGEIEQLARKSGMRTMYEDGLSKALRGETTIEEVLRVTEDA
partner: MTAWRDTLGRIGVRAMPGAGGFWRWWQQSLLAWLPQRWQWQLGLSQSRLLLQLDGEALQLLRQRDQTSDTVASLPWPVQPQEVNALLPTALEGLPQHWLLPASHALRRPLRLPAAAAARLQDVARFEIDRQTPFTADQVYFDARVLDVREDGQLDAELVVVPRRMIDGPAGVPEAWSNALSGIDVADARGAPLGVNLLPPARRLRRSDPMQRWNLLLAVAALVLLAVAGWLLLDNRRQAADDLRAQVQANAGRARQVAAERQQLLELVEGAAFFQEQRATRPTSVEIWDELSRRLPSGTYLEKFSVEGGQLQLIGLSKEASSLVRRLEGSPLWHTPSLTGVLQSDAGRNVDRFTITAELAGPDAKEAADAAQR

Variants of: B1
Conditions: with gspl_xancp pefL

| Variant | effect of a mutation on the interaction |
| --- | --- |
| MEQRSAETRIVEALLERRRLKDTDLVRARQLQAESGMGLLALLGRLGLVSERDHAETCAEVLGLPLVDARQLGDTPPEMLPEVQGLSLRFLKQFHLCPVGERDGRLDLWIADPYDDYAIDAVRLATGLPLLLQVGLRSEIDDLIERWYGQGRSAMGTIVETADGDASSTDDIEALRDLASEAPVIRLVNLVIQHAVELRASDIHIEPFESRLKVRYRVDGVLVEGESPPAKLTAAVISRIKIMAKLNIAERRLPQDGRIMLRVQGKELDLRVSTVPTAHGESVVMRLLDRETVVFDFYKLGFTEDFLPQFRKVLEQPHGIMLVTGPTGSGKTTTLYTALSQLNTSDVKIITVEDPVEYQIEGINQIQAKPQIGLDFANALRSIVRQDPDIIMIGEMRDLETARIAIQSALTGHLVLSTLHTNNAAGGITRLLDMGVEDYLLTSTINGILAQRLVRKLDLANAERYAASPEEIERFDLRRLQPDGEIFLYRPRATAAAPTGYLGATTIVEFLVMNDELRRAVMRRAGMGEIEQLARKSGMRTMYEDGLSKALRGETTIEEVLRVTEDA [R504A] | disrupting interaction |
| MEQRSAETRIVEALLERRRLKDTDLVRARQLQAESGMGLLALLGRLGLVSERDHAETCAEVLGLPLVDARQLGDTPPEMLPEVQGLSLRFLKQFHLCPVGERDGRLDLWIADPYDDYAIDAVRLATGLPLLLQVGLRSEIDDLIERWYGQGRSAMGTIVETADGDASSTDDIEALRDLASEAPVIRLVNLVIQHAVELRASDIHIEPFESRLKVRYRVDGVLVEGESPPAKLTAAVISRIKIMAKLNIAERRLPQDGRIMLRVQGKELDLRVSTVPTAHGESVVMRLLDRETVVFDFYKLGFTEDFLPQFRKVLEQPHGIMLVTGPTGSGMTTTLYTALSQLNTSDVKIITVEDPVEYQIEGINQIQAKPQIGLDFANALRSIVRQDPDIIMIGEMRDLETARIAIQSALTGHLVLSTLHTNNAAGGITRLLDMGVEDYLLTSTINGILAQRLVRKLDLANAERYAASPEEIERFDLRRLQPDGEIFLYRPRATAAAPTGYLGRTTIVEFLVMNDELRRAVMRRAGMGEIEQLARKSGMRTMYEDGLSKALRGETTIEEVLRVTEDA [K331M] | disrupting interaction |
